The numbers were not newly measured in publication PMC5023690, which cites them from elsewhere.

The target of series [1] is ONE-GC M836-C1110 (Rattus norvegicus) (UniProt P51839). As to the kind of experiment: SPR; given as Ka. Background: Surface plasmon resonance follows binding to a sensor surface in real time, without labels.
The target is the same in series [2]. The experiment in a line: SPR.

UniProt P51839, sequence (P51839 836-1110): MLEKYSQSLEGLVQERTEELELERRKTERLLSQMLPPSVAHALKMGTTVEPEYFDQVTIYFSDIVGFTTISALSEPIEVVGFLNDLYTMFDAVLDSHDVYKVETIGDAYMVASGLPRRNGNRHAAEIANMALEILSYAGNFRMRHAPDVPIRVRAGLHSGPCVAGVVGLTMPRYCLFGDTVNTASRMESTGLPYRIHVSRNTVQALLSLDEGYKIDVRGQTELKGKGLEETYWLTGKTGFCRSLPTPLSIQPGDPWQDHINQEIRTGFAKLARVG

In the case of Frq (frequenin) (from UniProt P62166), the dissociation constant Kd was 426 nM in series [1] and 430 nM in series [2].

The Kd is the concentration at which binding is half-saturated.
